Measured values published in US20200317768A1 (published 2020).

Key:
[1] = molecular target: T1, human FcγRIIb extracellular domain, C-terminal His-tag (human, UniProt P31994 43-217); experiment: SPR 25C; FcgR bound per captured antibody, relative to parent B3
T1 construct: also called FcgRIIb (human)
T1 sequence: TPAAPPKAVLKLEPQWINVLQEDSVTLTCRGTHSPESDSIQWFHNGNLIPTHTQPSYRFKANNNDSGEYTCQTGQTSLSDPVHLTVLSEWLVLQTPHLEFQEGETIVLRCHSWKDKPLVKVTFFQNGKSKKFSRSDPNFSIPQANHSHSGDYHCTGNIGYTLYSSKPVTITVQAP
Experimental: (§1) These Fc variants are referred to as B3 variants. B3 variants were expressed and the binding of protein-A purified antibodies to each FcγR (FcγRIIa type H. FcγRIIa type R, FcγRIIb, and FcγRIIIaF) was comprehensively evaluated as follows. Analysis of interaction between each altered antibody and the Fcγ receptor prepared as mentioned above was carried out using BIACORE® T100 (GE Healthcare), BIACORE® T200 (GE Healthcare), BIACORE® A100, or BIACORE® 4000. HBS-EP+(GE Healthcare) was used as the running buffer, and the measurement temperature was set to 25° C. Chips produced by immobilizing Protein A (Thermo Scientific), Protein A/G (Thermo Scientific), or Protein L (ACTIGEN or BioVision) by the amine coupling method to a Series S sensor Chip CM5 or CM4 (GE Healthcare) were used. After capturing of antibodies of interest onto these sensor chips, an Fcγ receptor diluted with the running buffer was allowed to interact, the amount bound to an antibody was measured. However, since the amount of Fcγ receptor bound depends on the amount of the captured antibodies, the amount of Fcγ receptor bound was divided by the amount of each antibody captured to obtain corrected values, and these values were compared. Furthermore, antibodies captured onto the chips were washed by 10 mM glycine-HCl pH1.5, and the chips were regenerated and used repeatedly. […] The value obtained by multiplying this value by 100 was used as an indicator of the relative FcγR-binding activity of each variant.

[2] = molecular target: T2, human FcγRIIaH extracellular domain, C-terminal His-tag (human, UniProt P12318 34-217); experiment: as above
T2 construct: also called human FcγRIIa (type H); FcgRIIaH
T2 sequence: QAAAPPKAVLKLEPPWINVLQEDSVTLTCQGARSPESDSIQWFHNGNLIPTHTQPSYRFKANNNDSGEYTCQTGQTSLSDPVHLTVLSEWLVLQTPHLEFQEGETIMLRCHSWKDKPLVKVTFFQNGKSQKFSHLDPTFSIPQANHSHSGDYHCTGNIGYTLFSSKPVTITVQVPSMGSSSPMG
Experimental: as §1

B1: GpH7-B3 variant N325F/GpL16-k0 (antibody, human IgG1, kappa)
heavy: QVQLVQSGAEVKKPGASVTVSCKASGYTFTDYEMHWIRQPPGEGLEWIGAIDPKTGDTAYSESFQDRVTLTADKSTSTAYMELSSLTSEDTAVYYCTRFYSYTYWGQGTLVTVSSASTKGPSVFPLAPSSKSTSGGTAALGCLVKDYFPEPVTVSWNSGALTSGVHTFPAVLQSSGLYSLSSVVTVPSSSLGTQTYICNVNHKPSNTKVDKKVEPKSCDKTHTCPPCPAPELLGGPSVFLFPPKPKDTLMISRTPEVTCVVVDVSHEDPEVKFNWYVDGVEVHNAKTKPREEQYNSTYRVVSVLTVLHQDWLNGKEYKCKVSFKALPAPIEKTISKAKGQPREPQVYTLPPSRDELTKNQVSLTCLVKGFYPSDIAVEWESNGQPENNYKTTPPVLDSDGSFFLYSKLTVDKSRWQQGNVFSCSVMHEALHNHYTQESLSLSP
light: DIVMTQSPLSLPVTPGEPASISCQASESLVHSNRNTYLHWYLQKPGQSPQLLIYKVSNRFSGVPDRFSGSGSGTDFTLKISRVEAEDVGVYYCSQNTHVPPTFGQGTKVEIERTVAAPSVFIFPPSDEQLKSGTASVVCLLNNFYPREAKVQWKVDNALQSGNSQESVTEQDSKDSTYSLSSTLTLSKADYEKHKVYACEVTHQGLSSPVTKSFNRGEC
Binding to human FcgRs (parent B3 = 100) [1]: 72 parent B3 = 100 | Binding to human FcgRs (parent B3 = 100) [2]: 65 parent B3 = 100

B2: GpH7-B3 variant P238Y/GpL16-k0 (antibody, human IgG1, kappa)
heavy: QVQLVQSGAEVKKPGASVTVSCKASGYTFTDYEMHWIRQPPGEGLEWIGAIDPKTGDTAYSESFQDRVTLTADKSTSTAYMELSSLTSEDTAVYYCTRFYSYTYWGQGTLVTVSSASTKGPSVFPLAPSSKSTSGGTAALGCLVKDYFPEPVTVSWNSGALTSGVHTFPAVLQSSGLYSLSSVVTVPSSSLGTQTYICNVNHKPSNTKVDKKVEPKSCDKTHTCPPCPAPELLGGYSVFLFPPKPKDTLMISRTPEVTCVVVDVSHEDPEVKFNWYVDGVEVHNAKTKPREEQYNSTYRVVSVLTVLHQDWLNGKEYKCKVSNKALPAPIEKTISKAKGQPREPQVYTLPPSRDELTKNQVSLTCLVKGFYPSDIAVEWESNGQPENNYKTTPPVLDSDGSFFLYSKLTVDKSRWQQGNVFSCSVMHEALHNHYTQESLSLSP
light: DIVMTQSPLSLPVTPGEPASISCQASESLVHSNRNTYLHWYLQKPGQSPQLLIYKVSNRFSGVPDRFSGSGSGTDFTLKISRVEAEDVGVYYCSQNTHVPPTFGQGTKVEIERTVAAPSVFIFPPSDEQLKSGTASVVCLLNNFYPREAKVQWKVDNALQSGNSQESVTEQDSKDSTYSLSSTLTLSKADYEKHKVYACEVTHQGLSSPVTKSFNRGEC
Binding to human FcgRs (parent B3 = 100) [1]: 114 parent B3 = 100 | Binding to human FcgRs (parent B3 = 100) [2]: 93 parent B3 = 100
